Source: patent US20200087373A1 (UNIVERSITY OF COPENHAGEN, published 2020)
Ends that are not written are not given here. * marks the point of attachment. C16 diacid = O=C(O)CCCCCCCCCCCCCCC(=O)*

Legend:
human GIP receptor [1] = biological target: T1, human GIP receptor (human, UniProt P48546 22-466); experiment: cell-based or functional assay
T1 sequence (looked up): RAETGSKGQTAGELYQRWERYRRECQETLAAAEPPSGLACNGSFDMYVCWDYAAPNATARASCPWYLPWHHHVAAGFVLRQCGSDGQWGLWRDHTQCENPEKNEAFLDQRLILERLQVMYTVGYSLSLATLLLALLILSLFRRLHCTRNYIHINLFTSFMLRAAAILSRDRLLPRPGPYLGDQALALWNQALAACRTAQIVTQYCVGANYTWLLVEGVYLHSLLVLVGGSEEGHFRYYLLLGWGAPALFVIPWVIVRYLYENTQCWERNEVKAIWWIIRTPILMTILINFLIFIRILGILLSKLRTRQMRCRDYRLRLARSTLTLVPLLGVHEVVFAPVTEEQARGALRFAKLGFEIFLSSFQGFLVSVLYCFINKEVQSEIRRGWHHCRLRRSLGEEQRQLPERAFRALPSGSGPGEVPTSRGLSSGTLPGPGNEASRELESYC

human GIP receptor [2] = biological target: T1, human GIP receptor; experiment: 125I-hGIP competition binding, COS-7/hGIPR, 2% HSA;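 further: nonspecific binding defined as radioligand binding to untransfected cells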
Experimental: (§1) After incubation, the cells were washed twice in ice-cold binding buffer (+/−2% HSA) and lysed using 200 mM NaOH with 1% SDS for 30 min. Nonspecific binding was determined as the binding of radioactive ligand to untransfected cells.

human GIP receptor [3] = biological target: T1, human GIP receptor; experiment: 125I-hGIP competition binding, COS-7/hGIPR, 0.1% casein;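 further: nonspecific binding defined as radioligand binding measured on untransfected cells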
Experimental: as §1

human GIP receptor [4] = biological target: T1, human GIP receptor; experiment: 125I-hGIP competition binding, COS-7 cells expressing hGIPR;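 further: nonspecific binding taken as radioligand bound by untransfected cells, binding buffer with or without 2% HSA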
Experimental: as §1

human GIP receptor [5] = biological target: T1, human GIP receptor; experiment: IC50 with 2% HSA over IC50 with 0.1% casein, 125I-hGIP competition, COS-7/hGIPR
Experimental: as §1

B1: AT180 [hGIP(5-30)NH2[Q20K]-C16diacid/20] (peptide)
peptide: TFISDYSIAMDKIHQK(C16 diacid)DFVNWLLAQK-NH2
modifications: N-terminus assumed
SMILES: CC[C@H](C)[C@H](NC(=O)[C@H](CO)NC(=O)[C@H](Cc1ccc(O)cc1)NC(=O)[C@H](CC(=O)O)NC(=O)[C@H](CO)NC(=O)[C@@H](NC(=O)[C@H](Cc1ccccc1)NC(=O)[C@@H](N)[C@@H](C)O)[C@@H](C)CC)C(=O)N[C@@H](C)C(=O)N[C@@H](CCSC)C(=O)N[C@@H](CC(=O)O)C(=O)N[C@@H](CCCCN)C(=O)N[C@H](C(=O)N[C@@H](Cc1c[nH]cn1)C(=O)N[C@@H](CCC(N)=O)C(=O)N[C@@H](CCCCNC(=O)CCCCCCCCCCCCCCC(=O)O)C(=O)N[C@@H](CC(=O)O)C(=O)N[C@@H](Cc1ccccc1)C(=O)N[C@H](C(=O)N[C@@H](CC(N)=O)C(=O)N[C@@H](Cc1c[nH]c2ccccc12)C(=O)N[C@@H](CC(C)C)C(=O)N[C@@H](CC(C)C)C(=O)N[C@@H](C)C(=O)N[C@@H](CCC(N)=O)C(=O)N[C@@H](CCCCN)C(N)=O)C(C)C)[C@@H](C)CC
- cAMP agonism, Emax (human GIP receptor [1]): 0
- cAMP antagonism (human GIP receptor [1]): 37 nM
- cAMP antagonism, log (human GIP receptor [1]): -7.4 log M
- IC50 (human GIP receptor [2]): 1.7 µM
- logIC50 (human GIP receptor [2]): -5.8 log M
- IC50 (human GIP receptor [3]): 0.457 µM
- logIC50 (human GIP receptor [3]): -6.3 log M
- IC50 (human GIP receptor [4]): 0.106 µM
- log IC50 (human GIP receptor [4]): -7 log M
- Fold change HSA (2%)/Casein (0.1%) (human GIP receptor [5]): 3.7 fold

B2: AT181 [hGIP(5-30)NH2[D21K]-C16diacid/21] (peptide)
peptide: TFISDYSIAMDKIHQQK(C16 diacid)FVNWLLAQK-NH2
modifications: N-terminus assumed
SMILES: CC[C@H](C)[C@H](NC(=O)[C@H](CO)NC(=O)[C@H](Cc1ccc(O)cc1)NC(=O)[C@H](CC(=O)O)NC(=O)[C@H](CO)NC(=O)[C@@H](NC(=O)[C@H](Cc1ccccc1)NC(=O)[C@@H](N)[C@@H](C)O)[C@@H](C)CC)C(=O)N[C@@H](C)C(=O)N[C@@H](CCSC)C(=O)N[C@@H](CC(=O)O)C(=O)N[C@@H](CCCCN)C(=O)N[C@H](C(=O)N[C@@H](Cc1c[nH]cn1)C(=O)N[C@@H](CCC(N)=O)C(=O)N[C@@H](CCC(N)=O)C(=O)N[C@@H](CCCCNC(=O)CCCCCCCCCCCCCCC(=O)O)C(=O)N[C@@H](Cc1ccccc1)C(=O)N[C@H](C(=O)N[C@@H](CC(N)=O)C(=O)N[C@@H](Cc1c[nH]c2ccccc12)C(=O)N[C@@H](CC(C)C)C(=O)N[C@@H](CC(C)C)C(=O)N[C@@H](C)C(=O)N[C@@H](CCC(N)=O)C(=O)N[C@@H](CCCCN)C(N)=O)C(C)C)[C@@H](C)CC
- cAMP agonism (human GIP receptor [1]): 2 nM
- cAMP agonism, EC50 (log) (human GIP receptor [1]): -9 log M
- cAMP agonism, Emax (human GIP receptor [1]): 9
- cAMP antagonism (human GIP receptor [1]): 16 nM
- cAMP antagonism, log (human GIP receptor [1]): -7.8 log M
- IC50 (human GIP receptor [2]): 0.549 µM
- logIC50 (human GIP receptor [2]): -6.3 log M
- IC50 (human GIP receptor [3]): 0.105 µM
- logIC50 (human GIP receptor [3]): -7 log M
- IC50 (human GIP receptor [4]): 0.048 µM
- log IC50 (human GIP receptor [4]): -7.3 log M
- Fold change HSA (2%)/Casein (0.1%) (human GIP receptor [5]): 5.2 fold

B3: AT182 [hGIP(5-30)NH2[F22K]-C16diacid/22] (peptide)
peptide: TFISDYSIAMDKIHQQDK(C16 diacid)VNWLLAQK-NH2
modifications: N-terminus assumed
SMILES: CC[C@H](C)[C@H](NC(=O)[C@H](CO)NC(=O)[C@H](Cc1ccc(O)cc1)NC(=O)[C@H](CC(=O)O)NC(=O)[C@H](CO)NC(=O)[C@@H](NC(=O)[C@H](Cc1ccccc1)NC(=O)[C@@H](N)[C@@H](C)O)[C@@H](C)CC)C(=O)N[C@@H](C)C(=O)N[C@@H](CCSC)C(=O)N[C@@H](CC(=O)O)C(=O)N[C@@H](CCCCN)C(=O)N[C@H](C(=O)N[C@@H](Cc1c[nH]cn1)C(=O)N[C@@H](CCC(N)=O)C(=O)N[C@@H](CCC(N)=O)C(=O)N[C@@H](CC(=O)O)C(=O)N[C@@H](CCCCNC(=O)CCCCCCCCCCCCCCC(=O)O)C(=O)N[C@H](C(=O)N[C@@H](CC(N)=O)C(=O)N[C@@H](Cc1c[nH]c2ccccc12)C(=O)N[C@@H](CC(C)C)C(=O)N[C@@H](CC(C)C)C(=O)N[C@@H](C)C(=O)N[C@@H](CCC(N)=O)C(=O)N[C@@H](CCCCN)C(N)=O)C(C)C)[C@@H](C)CC
- cAMP agonism (human GIP receptor [1]): 634 nM
- cAMP agonism, EC50 (log) (human GIP receptor [1]): -6 log M
- cAMP agonism, Emax (human GIP receptor [1]): 13
- cAMP antagonism (human GIP receptor [1]): 634 nM
- cAMP antagonism, log (human GIP receptor [1]): -6.2 log M
- IC50 (human GIP receptor [2]): 0.141 µM
- logIC50 (human GIP receptor [2]): -6.9 log M
- IC50 (human GIP receptor [3]): 0.0479 µM
- logIC50 (human GIP receptor [3]): -7.3 log M
- IC50 (human GIP receptor [4]): 0.962 µM
- log IC50 (human GIP receptor [4]): -6 log M
- Fold change HSA (2%)/Casein (0.1%) (human GIP receptor [5]): 3 fold

B4: AT183 [hGIP(5-30)NH2[V23K]-C16diacid/23] (peptide)
peptide: TFISDYSIAMDKIHQQDFK(C16 diacid)NWLLAQK-NH2
modifications: N-terminus assumed
SMILES: CC[C@H](C)[C@H](NC(=O)[C@H](CO)NC(=O)[C@H](Cc1ccc(O)cc1)NC(=O)[C@H](CC(=O)O)NC(=O)[C@H](CO)NC(=O)[C@@H](NC(=O)[C@H](Cc1ccccc1)NC(=O)[C@@H](N)[C@@H](C)O)[C@@H](C)CC)C(=O)N[C@@H](C)C(=O)N[C@@H](CCSC)C(=O)N[C@@H](CC(=O)O)C(=O)N[C@@H](CCCCN)C(=O)N[C@H](C(=O)N[C@@H](Cc1c[nH]cn1)C(=O)N[C@@H](CCC(N)=O)C(=O)N[C@@H](CCC(N)=O)C(=O)N[C@@H](CC(=O)O)C(=O)N[C@@H](Cc1ccccc1)C(=O)N[C@@H](CCCCNC(=O)CCCCCCCCCCCCCCC(=O)O)C(=O)N[C@@H](CC(N)=O)C(=O)N[C@@H](Cc1c[nH]c2ccccc12)C(=O)N[C@@H](CC(C)C)C(=O)N[C@@H](CC(C)C)C(=O)N[C@@H](C)C(=O)N[C@@H](CCC(N)=O)C(=O)N[C@@H](CCCCN)C(N)=O)[C@@H](C)CC
- cAMP agonism, Emax (human GIP receptor [1]): 0
- cAMP antagonism (human GIP receptor [1]): 1770 nM
- cAMP antagonism, log (human GIP receptor [1]): -5.8 log M
- IC50 (human GIP receptor [2]): 1.7 µM
- logIC50 (human GIP receptor [2]): -5.8 log M
- IC50 (human GIP receptor [3]): 0.955 µM
- logIC50 (human GIP receptor [3]): -6 log M
- IC50 (human GIP receptor [4]): 7.13 µM
- log IC50 (human GIP receptor [4]): -5.1 log M
- Fold change HSA (2%)/Casein (0.1%) (human GIP receptor [5]): 1.8 fold

B5: AT184 [hGIP(5-30)NH2[N24K]-C16diacid/24] (peptide)
peptide: TFISDYSIAMDKIHQQDFVK(C16 diacid)WLLAQK-NH2
modifications: N-terminus assumed
SMILES: CC[C@H](C)[C@H](NC(=O)[C@H](CO)NC(=O)[C@H](Cc1ccc(O)cc1)NC(=O)[C@H](CC(=O)O)NC(=O)[C@H](CO)NC(=O)[C@@H](NC(=O)[C@H](Cc1ccccc1)NC(=O)[C@@H](N)[C@@H](C)O)[C@@H](C)CC)C(=O)N[C@@H](C)C(=O)N[C@@H](CCSC)C(=O)N[C@@H](CC(=O)O)C(=O)N[C@@H](CCCCN)C(=O)N[C@H](C(=O)N[C@@H](Cc1c[nH]cn1)C(=O)N[C@@H](CCC(N)=O)C(=O)N[C@@H](CCC(N)=O)C(=O)N[C@@H](CC(=O)O)C(=O)N[C@@H](Cc1ccccc1)C(=O)N[C@H](C(=O)N[C@@H](CCCCNC(=O)CCCCCCCCCCCCCCC(=O)O)C(=O)N[C@@H](Cc1c[nH]c2ccccc12)C(=O)N[C@@H](CC(C)C)C(=O)N[C@@H](CC(C)C)C(=O)N[C@@H](C)C(=O)N[C@@H](CCC(N)=O)C(=O)N[C@@H](CCCCN)C(N)=O)C(C)C)[C@@H](C)CC
- cAMP agonism, Emax (human GIP receptor [1]): 0
- cAMP antagonism (human GIP receptor [1]): 91 nM
- cAMP antagonism, log (human GIP receptor [1]): -7 log M
- IC50 (human GIP receptor [2]): 11.2 µM
- logIC50 (human GIP receptor [2]): -5 log M
- IC50 (human GIP receptor [3]): 7.08 µM
- logIC50 (human GIP receptor [3]): -5.2 log M
- IC50 (human GIP receptor [4]): 0.247 µM
- log IC50 (human GIP receptor [4]): -6.6 log M
- Fold change HSA (2%)/Casein (0.1%) (human GIP receptor [5]): 1.6 fold

B6: AT185 [hGIP(5-30)NH2[W25K]-C16diacid/25] (peptide)
peptide: TFISDYSIAMDKIHQQDFVNK(C16 diacid)LLAQK-NH2
modifications: N-terminus assumed
SMILES: CC[C@H](C)[C@H](NC(=O)[C@H](CO)NC(=O)[C@H](Cc1ccc(O)cc1)NC(=O)[C@H](CC(=O)O)NC(=O)[C@H](CO)NC(=O)[C@@H](NC(=O)[C@H](Cc1ccccc1)NC(=O)[C@@H](N)[C@@H](C)O)[C@@H](C)CC)C(=O)N[C@@H](C)C(=O)N[C@@H](CCSC)C(=O)N[C@@H](CC(=O)O)C(=O)N[C@@H](CCCCN)C(=O)N[C@H](C(=O)N[C@@H](Cc1c[nH]cn1)C(=O)N[C@@H](CCC(N)=O)C(=O)N[C@@H](CCC(N)=O)C(=O)N[C@@H](CC(=O)O)C(=O)N[C@@H](Cc1ccccc1)C(=O)N[C@H](C(=O)N[C@@H](CC(N)=O)C(=O)N[C@@H](CCCCNC(=O)CCCCCCCCCCCCCCC(=O)O)C(=O)N[C@@H](CC(C)C)C(=O)N[C@@H](CC(C)C)C(=O)N[C@@H](C)C(=O)N[C@@H](CCC(N)=O)C(=O)N[C@@H](CCCCN)C(N)=O)C(C)C)[C@@H](C)CC
- cAMP agonism (human GIP receptor [1]): 44 nM
- cAMP agonism, EC50 (log) (human GIP receptor [1]): -7 log M
- cAMP agonism, Emax (human GIP receptor [1]): 18
- cAMP antagonism (human GIP receptor [1]): 44 nM
- cAMP antagonism, log (human GIP receptor [1]): -7.4 log M
- IC50 (human GIP receptor [2]): 1.15 µM
- logIC50 (human GIP receptor [2]): -5.9 log M
- IC50 (human GIP receptor [3]): 0.245 µM
- logIC50 (human GIP receptor [3]): -6.6 log M
- IC50 (human GIP receptor [4]): 0.087 µM
- log IC50 (human GIP receptor [4]): -7.1 log M
- Fold change HSA (2%)/Casein (0.1%) (human GIP receptor [5]): 4.7 fold
